B1: Mitochondrial protein import protein ZIM17 (Saccharomyces cerevisiae), P42844 (parent)
chain: MIPRTRTLLQSKIPITRYFARCWAPRVRYNVCRTLPAAALHTNIIAHNEVKKDDKKVHLGSFKVDKPKMMIAFTCKKCNTRSSHTMSKQAYEKGTVLISCPHCKVRHLIADHLKIFHDHHVTVEQLMKANGEQVSQDVGDLEFEDIPDSLKDVLGKYAKNNSENASQLPHPSQK

Variants of: B1
Conditions: with hsp77_yeasx SSC1, P0CS91
Chain of hsp77_yeasx SSC1, P0CS91 (P0CS91 whole entry): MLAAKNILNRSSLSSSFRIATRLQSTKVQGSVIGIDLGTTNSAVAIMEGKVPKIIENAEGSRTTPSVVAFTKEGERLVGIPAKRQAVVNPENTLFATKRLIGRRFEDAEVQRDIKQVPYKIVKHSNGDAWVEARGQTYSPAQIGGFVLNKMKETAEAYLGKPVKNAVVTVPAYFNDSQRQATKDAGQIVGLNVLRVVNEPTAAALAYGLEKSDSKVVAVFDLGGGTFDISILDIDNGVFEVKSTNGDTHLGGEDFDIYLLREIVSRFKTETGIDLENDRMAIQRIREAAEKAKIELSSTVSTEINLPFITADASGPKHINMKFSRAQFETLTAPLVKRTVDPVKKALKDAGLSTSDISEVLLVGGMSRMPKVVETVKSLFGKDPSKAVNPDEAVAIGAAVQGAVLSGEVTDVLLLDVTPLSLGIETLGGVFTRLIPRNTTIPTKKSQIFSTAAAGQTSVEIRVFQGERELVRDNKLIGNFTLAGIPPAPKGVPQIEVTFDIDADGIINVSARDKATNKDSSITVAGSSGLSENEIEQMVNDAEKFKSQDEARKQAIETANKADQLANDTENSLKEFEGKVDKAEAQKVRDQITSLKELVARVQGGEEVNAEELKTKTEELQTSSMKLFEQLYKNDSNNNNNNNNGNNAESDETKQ

Row | effect of a mutation on the interaction | Variant
1 | disrupting interaction | MIPRTRTLLQSKIPITRYFARCWAPRVRYNVCRTLPAAALHTNIIAHNEVKKDDKKVHLGSFKVDKPKMMIAFTCKKCNTRSSHTMSKQAYEKGTVLISCPHCKVRHLIAAHLKIFHDHHVTVEQLMKANGEQVSQDVGDLEFEDIPDSLKDVLGKYAKNNSENASQLPHPSQK

Variants of: B1
Conditions: with hsp77_yeasx SSC1, P0CS91
Remark: another data set of the same source

Row | effect of a mutation on the interaction | Variant
2 | disrupting interaction | MIPRTRTLLQSKIPITRYFARCWAPRVRYNVCRTLPAAALHTNIIAHNEVKKDDKKVHLGSFKVDKPKMMIAFTCKKCNTRSSHTMSKQAYEKGTVLISCPHCKVRALIADHLKIFHDHHVTVEQLMKANGEQVSQDVGDLEFEDIPDSLKDVLGKYAKNNSENASQLPHPSQK
3 | disrupting interaction | MIPRTRTLLQSKIPITRYFARCWAPRVRYNVCRTLPAAALHTNIIAHNEVKKDDKKVHLGSFKVDKPKMMIAFTCKKCNTRSSHTMSKQAYEKGTVLISCPHCKVAHLIADHLKIFHDHHVTVEQLMKANGEQVSQDVGDLEFEDIPDSLKDVLGKYAKNNSENASQLPHPSQK
